Our source for the binding result, Kd and binding signal values is doi:10.1101/2022.07.22.501140.

In general, Kd refers to a measure of binding affinity in units of concentration. Read a low Kd as tighter binding.

Like-named read-outs stand apart in the source and are kept apart here.

Holding throughout (assay): fluorescence polarization
In general terms: Polarisation of emitted light reports the rotation of a fluorescent probe.

The target in series [1] is T1, XlBicc1 N-term (KH1-KH3) (Xenopus laevis, UniProt A0A1L8FE49 1-506).
Series [2] addresses T2, DmBicc1 N-term (Drosophila melanogaster, UniProt Q24009 1-506).
T2 sequence: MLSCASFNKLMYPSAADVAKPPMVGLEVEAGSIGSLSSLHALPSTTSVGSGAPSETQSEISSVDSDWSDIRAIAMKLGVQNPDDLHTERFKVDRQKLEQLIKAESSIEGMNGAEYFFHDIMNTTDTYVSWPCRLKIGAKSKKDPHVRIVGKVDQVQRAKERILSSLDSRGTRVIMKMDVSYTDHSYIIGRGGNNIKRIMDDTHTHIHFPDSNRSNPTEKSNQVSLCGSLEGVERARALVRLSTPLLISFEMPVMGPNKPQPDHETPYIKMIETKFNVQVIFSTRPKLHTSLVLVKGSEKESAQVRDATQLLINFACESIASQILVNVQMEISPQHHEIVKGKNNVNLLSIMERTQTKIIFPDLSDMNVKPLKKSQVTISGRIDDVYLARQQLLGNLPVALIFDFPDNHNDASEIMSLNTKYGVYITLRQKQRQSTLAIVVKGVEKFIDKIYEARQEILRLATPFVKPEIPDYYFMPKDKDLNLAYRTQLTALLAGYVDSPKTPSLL

In series [3] the target is T3, HsBicc1 N-term (human, UniProt Q9H694 1-506).
T3 sequence (Q9H694 1-506): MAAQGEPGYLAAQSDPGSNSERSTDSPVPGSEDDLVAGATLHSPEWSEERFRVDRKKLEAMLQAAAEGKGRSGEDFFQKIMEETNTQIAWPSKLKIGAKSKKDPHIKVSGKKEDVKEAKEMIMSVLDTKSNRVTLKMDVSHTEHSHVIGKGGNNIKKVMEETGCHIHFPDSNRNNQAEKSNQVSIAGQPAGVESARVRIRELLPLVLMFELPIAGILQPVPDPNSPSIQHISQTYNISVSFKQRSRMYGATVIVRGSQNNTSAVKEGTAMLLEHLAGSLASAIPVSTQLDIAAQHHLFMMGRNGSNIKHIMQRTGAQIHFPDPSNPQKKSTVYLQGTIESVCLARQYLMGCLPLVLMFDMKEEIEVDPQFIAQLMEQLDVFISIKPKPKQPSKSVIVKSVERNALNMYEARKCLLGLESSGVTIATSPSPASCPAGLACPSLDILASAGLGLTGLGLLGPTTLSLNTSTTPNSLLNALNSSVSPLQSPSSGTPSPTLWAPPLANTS
Series [4] addresses T1, XlBicc1 N-term (KH1-KH3). This is another data set of the same source.
In series [5] the target is T4, XlKH1-DmBicc1KH2-KH3 (Xenopus laevis / Drosophila …, UniProt A0A1L8FE49 1-134+Q24009:179-506, internal_change).
The target of series [6] is T2, DmBicc1 N-term. This is another data set of the same source.
Series [7] has as its target T3, HsBicc1 N-term. The source holds these as a separate data set.
In series [8] the target is T1, XlBicc1 N-term (KH1-KH3). This is another data set of the same source.
In series [9] the target is T4, XlKH1-DmBicc1KH2-KH3. This is another data set of the same source.
Series [10] deals with T3, HsBicc1 N-term. The source holds these as a separate data set.

As for CGACUCUAGAAGGUUGUACAUUAACAGCUCC (structured_RNA) [Cripto-1 leader variant], the binding result with XlBicc1 N-term (KH1-KH3) [1], with DmBicc1 N-term [2] and with HsBicc1 N-term [3] was “no binding” each time.
CUUAUUAGACACGUUGUCGCGAAACAGCUCC (structured_RNA) [Cripto-1 loop variant]: the Kd with XlBicc1 N-term (KH1-KH3) [4] was roughly 12000 nM. In the series with XlKH1-DmBicc1KH2-KH3 [5], the binding result is on record as “no binding”. Moreover, the binding signal with DmBicc1 N-term [6] is 3.2 fold reduction vs wild-type RNA; with HsBicc1 N-term [7], 15 fold reduction vs wild-type RNA.
For CGACUCUAGAAGGACUACGUGGCAUUCCAAUU (ssRNA) [Cyclin B1 negative control RNA], the binding result with XlBicc1 N-term (KH1-KH3) [8] is on record as “no binding”.
With CUUAUUAGACACGUUGUACAUUAACAGCUCC (structured_RNA) [XlCripto-1 wild-type RNA site], the dissociation constant Kd was 34 nM with XlBicc1 N-term (KH1-KH3) [1], 89 nM with XlKH1-DmBicc1KH2-KH3 [9] and 93 nM in the series with DmBicc1 N-term [2]. In addition, in the series with HsBicc1 N-term [10], the binding result is recorded as “binds”.
